For 1 molecule, binding result, Kd and response (RU) results are on record in patent US20140302041A1 (ORIBASE PHARMA, published 2014).

In test [1] the target is T1, mouse Axl-Fc (mouse, UniProt Q00993 20-443, limits assumed).
T1 construct: also called m-Axl; not shown: Fc part
T1 sequence (looked up): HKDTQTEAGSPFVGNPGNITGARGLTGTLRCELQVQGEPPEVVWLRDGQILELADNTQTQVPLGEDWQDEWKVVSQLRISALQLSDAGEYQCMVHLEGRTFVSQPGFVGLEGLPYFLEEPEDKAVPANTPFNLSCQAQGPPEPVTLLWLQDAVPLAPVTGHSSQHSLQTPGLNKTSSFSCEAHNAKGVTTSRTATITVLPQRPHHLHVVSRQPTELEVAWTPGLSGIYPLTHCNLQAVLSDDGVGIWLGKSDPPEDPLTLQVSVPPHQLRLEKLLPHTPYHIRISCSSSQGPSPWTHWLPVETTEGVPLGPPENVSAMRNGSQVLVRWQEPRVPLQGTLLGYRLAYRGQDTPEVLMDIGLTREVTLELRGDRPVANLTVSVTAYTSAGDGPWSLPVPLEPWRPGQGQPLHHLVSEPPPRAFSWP
Description: ELISA, plates with mouse Axl-Fc, HRP-conjugated anti-mouse IgG, OD 450 nm. As to the method: (§1) FIG. 1: ELISA experiments to investigate the affinity and the specificity of mouse monoclonal antibodies against hAxl.
(§2) For cross reaction assay, coated plates were incubated with human Axl-Fc (h-Axl), mouse Axl-Fc (m-Axl) or human Mer-Fc (h-Mer), Tyro-3-Fc (h-Tyro-3) for 1 hour at 37° C. and washed four times in PBST. Plates were incubated with anti-Axl mAbs (2 hours at 37° C.) and washed four times in PBST. Plates were incubated with HRP-conjugated anti-mouse IgG (Sigma) at a 1:2000 dilution in PBST, 1% BSA (1 hour at 37° C.). Finally, an ortho-phenylenediamine solution (Sigma) was added for 30 min at room temperature in the dark and the absorbance was measured at 450 nm.
A general note: In an ELISA, binding on a coated surface is turned into a signal by an enzyme label.

In test [2] the target is T2, Tyro-3-Fc (h-Tyro-3) (human, UniProt Q06418 41-428, limits assumed).
T2 construct: The species is read from the label 'h-Tyro-3'; also called human Tyro-3-Fc; not shown: Fc part
T2 sequence (looked up): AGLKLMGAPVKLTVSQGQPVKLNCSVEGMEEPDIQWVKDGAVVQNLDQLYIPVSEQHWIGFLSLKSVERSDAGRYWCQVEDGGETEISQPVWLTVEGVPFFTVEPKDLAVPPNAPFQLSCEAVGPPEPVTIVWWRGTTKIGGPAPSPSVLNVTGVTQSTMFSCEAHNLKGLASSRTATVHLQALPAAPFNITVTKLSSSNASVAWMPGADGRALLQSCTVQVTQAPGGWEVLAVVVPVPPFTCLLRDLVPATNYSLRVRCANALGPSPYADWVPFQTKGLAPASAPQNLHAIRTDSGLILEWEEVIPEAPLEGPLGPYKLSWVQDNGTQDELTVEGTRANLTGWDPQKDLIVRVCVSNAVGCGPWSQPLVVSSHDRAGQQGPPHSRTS
Description: ELISA, plates with human Tyro-3-Fc, HRP-conjugated anti-mouse IgG, OD 450 nm. The protocol: as §1, §2

Test [3] has as its target human Axl extracellular domain fused to human Fc domain (hAxl-hFc protein; R&D system) (human) (UniProt P30530). Description: SPR (BIAcore 3000), hAxl-hFc amine-coupled on CM5 chip, mAb injected at 2 to 133 nM, 25 °C, 1:1 Langmuir model; hAxl-hFc on the CM5 chip, mAb injected at 2 to 133 nM, 25 C. Background: SPR reads the build-up and loss of mass on a sensor chip optically.

The target is the same in test [4]. Description: SPR (BIAcore), hAxl-hFc amine-coupled to a CM5 chip; 20G7-D9 (666 nM by the text) injected second, without removing Gas6, upper panel.
Test [5] shares this target. Briefly: SPR (BIAcore), hAxl-hFc amine-coupled to a CM5 chip; 20G7-D9 (666 nM by the text) injected first, lower panel.
Test [6] addresses T3, human Axl on the cell surface (A549 cells; pancreatic cancer cell lines) (human, UniProt P30530 26-894).
T3 construct: whole, on cells; also called cell surface Axl; Axl receptor
T3 sequence (looked up): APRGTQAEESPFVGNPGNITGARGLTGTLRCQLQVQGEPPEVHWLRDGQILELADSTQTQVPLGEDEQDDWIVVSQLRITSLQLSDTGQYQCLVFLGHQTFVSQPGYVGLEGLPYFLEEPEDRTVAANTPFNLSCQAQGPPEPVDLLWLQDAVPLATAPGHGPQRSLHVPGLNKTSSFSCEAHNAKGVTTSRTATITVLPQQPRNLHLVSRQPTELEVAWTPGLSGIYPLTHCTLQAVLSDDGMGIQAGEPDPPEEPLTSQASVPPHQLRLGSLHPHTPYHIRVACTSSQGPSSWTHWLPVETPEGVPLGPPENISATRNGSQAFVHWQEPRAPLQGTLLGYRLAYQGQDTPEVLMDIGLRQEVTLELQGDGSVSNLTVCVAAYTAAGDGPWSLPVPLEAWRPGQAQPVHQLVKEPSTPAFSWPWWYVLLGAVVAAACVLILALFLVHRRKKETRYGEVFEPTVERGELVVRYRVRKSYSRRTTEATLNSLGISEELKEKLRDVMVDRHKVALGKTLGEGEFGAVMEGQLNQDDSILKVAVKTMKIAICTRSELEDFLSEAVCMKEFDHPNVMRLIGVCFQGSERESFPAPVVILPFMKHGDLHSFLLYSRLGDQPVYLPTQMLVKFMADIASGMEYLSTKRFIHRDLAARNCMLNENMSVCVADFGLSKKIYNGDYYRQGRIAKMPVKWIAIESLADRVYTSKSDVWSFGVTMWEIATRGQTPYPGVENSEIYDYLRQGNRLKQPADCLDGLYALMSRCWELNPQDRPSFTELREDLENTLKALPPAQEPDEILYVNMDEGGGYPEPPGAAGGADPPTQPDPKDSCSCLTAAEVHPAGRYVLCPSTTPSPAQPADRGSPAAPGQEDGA
Description: flow cytometry on A549 cells, fluorescein-conjugated anti-mouse IgG. The protocol:
FIG. 2: Flow cytometry analysis of cell surface Axl in A549.
The ability of mouse anti-Axl monoclonal antibodies of the invention to specifically recognize Axl expressing cells was determined by FACS using standard techniques. Briefly, A549 cells (ATCC number: CCL-185) were harvested, stained with purified mouse anti-Axl monoclonal antibodies of the invention at 4° C. for 1 hour, washed three times in PBS-BSA 0.1%, and then stained with fluorescein-conjugated anti-mouse IgG (1:50) (Sigma) at 4° C. in the dark for 45 min. Samples were analyzed on EPICS flow cytometer (Beckman-Coulter, Fullerton, Calif.).
For orientation: In flow cytometry, cells or beads pass a laser one at a time.

In test [7] the target is T4, human Mer-Fc (human, UniProt Q12866 26-499, limits assumed).
T4 construct: also called h-Mer; not shown: Fc part
T4 sequence (looked up): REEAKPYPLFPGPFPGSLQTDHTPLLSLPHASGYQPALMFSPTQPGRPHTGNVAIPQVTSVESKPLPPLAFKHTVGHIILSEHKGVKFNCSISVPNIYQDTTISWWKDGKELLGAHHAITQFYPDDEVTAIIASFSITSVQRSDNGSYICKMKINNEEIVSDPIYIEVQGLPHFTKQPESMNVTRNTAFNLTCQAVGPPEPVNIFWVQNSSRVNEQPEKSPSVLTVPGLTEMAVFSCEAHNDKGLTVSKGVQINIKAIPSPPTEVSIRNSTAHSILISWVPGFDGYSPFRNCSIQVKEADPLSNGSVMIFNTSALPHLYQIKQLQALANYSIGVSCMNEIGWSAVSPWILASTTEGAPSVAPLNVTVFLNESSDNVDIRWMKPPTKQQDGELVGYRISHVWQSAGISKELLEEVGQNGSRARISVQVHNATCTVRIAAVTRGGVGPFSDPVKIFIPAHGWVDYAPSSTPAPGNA
Briefly: ELISA, plates with human Mer-Fc, HRP-conjugated anti-mouse IgG, OD 450 nm. The protocol: as §1, §2

B1: mouse anti-Axl monoclonal antibody 20G7-D9 (antibody, V domains shown)
VH: QVQLQQSGAELMKPGASVKMSCKAAGYTFSSYWIEWVRQRPGHGLEWIGEIFPGSDSTNYNEKFNDRATFTADTSSNTAYMQLSSLTSEDSAVYYCARPLYYGSSAWFAYWGQGTLVTVSA
VL: DIQMTQSPASLSASVGETVTITCRASENIYSYLTWYQQKQRKSPQLLVYNAKTLAEGVPSRFSGSGSGTQFSLKINSLQPEDFGTYYCQHHYATPWTFGGGTKVEIK
notes: the irrelevant control Px is called 'murine IgG1 isotype mAb'; also called mAb 20G7-D9; mAb 20G7D9
As for B1, the binding result in test [1] was “no binding”; in test [2], “no binding”; in test [6], “binds”; in test [7], “no binding”. In addition, in test [3], the Kd (as a rule, a measure of binding affinity in units of concentration) was 53 nM. Also, the results for the response (RU) in test [4] and in test [5] were 2280 RU and 2530 RU, respectively.
